Test results taken from PMC5995542.

Assays:
[1] = biological target: E. coli 70S ribosome termination complex labelled with Cy3 at protein L11 (PreHC, PostHC* or PostHC) (E. coli) (UniProt P0A7J7); assay: FRET or BRET; smFRET (TIRF), RF1(GAQ)-Cy5 (10 nM) on immobilised PostHC* (puromycin) labelled at L11-Cy3, with excess unlabelled RF3 (1 µM) and GTP (1 mM); 22°C
[2] = biological target: E. coli 70S ribosome termination complex labelled with Cy3 at protein L11 (PreHC, PostHC* or PostHC) (E. coli) (UniProt P0A7J7); assay: FRET or BRET; smFRET (TIRF) between factor-Cy5 (10 nM, in solution) and L11-Cy3 on PreHC or PostHC (peptide released by puromycin or by the factor) immobilised by mRNA-biotin:neutravidin; no RF3; imaging buffer pH 7.5, 15 mM MgCl2, 22°C; koff from residence times, limited by photobleaching (0.07–0.19 s^-1)
[3] = biological target: E. coli 70S ribosome termination complex labelled with Cy3 at protein L11 (PreHC, PostHC* or PostHC) (E. coli) (UniProt P0A7J7); assay: FRET or BRET; smFRET (TIRF), RF1(GAQ)-Cy5 (10 nM) on immobilised PreHC labelled at L11-Cy3, with excess unlabelled RF3 (1 µM) and GTP (1 mM); 22°C
[4] = biological target: PostHC, post-hydrolysis termination complex: E. coli 70S ribosome labelled with Cy3 at protein L11, deacylated tRNAfMet in the P site and the stop codon UAA in the A site (E. coli) (UniProt P0A7J7); assay: FRET or BRET; single-molecule FRET by TIRF, residence time: RF3-Cy5 (10 nM) with GDPNP (1 mM) on L11-Cy3 PostHC immobilised through mRNA-biotin:neutravidin; with saturating unlabelled RF1 (1 µM)
[5] = biological target: E. coli 70S ribosome termination complex labelled with Cy3 at protein L11 (PreHC, PostHC* or PostHC) (E. coli) (UniProt P0A7J7); assay: FRET or BRET; smFRET (TIRF), RF1-Cy5 (10 nM) on immobilised L11-Cy3 PreHC converted in situ to PostHC by RF1, with excess unlabelled RF3 (1 µM) and GTP (1 mM); 22°C
[6] = biological target: PostHC, post-hydrolysis termination complex: E. coli 70S ribosome labelled with Cy3 at protein L11, deacylated tRNAfMet in the P site and the stop codon UAA in the A site (E. coli) (UniProt P0A7J7); assay: FRET or BRET; single-molecule FRET by TIRF, residence time: RF2-Cy5 (10 nM) on L11-Cy3 PostHC (peptide released by RF2) immobilised through mRNA-biotin:neutravidin; no RF3; imaging buffer pH 7.5, 15 mM MgCl2, 22°C

For “RF1(GAQ)-Cy5 (catalytically impaired RF1(G234A), Cy5-labelled) (from UniProt P0A7I0 1-360) (natural protein)”, the koff [1] was 1.3 s⁻¹, the koff of the small fraction (8%) of complexes that release RF1(GAQ) slowly [1] was 0.12 s⁻¹ and the koff [2] was < 0.2 s⁻¹. For the same substance, the koff [3] was < 0.3 s⁻¹.

In the case of “RF3-Cy5, single-cysteine release factor RF3(L233C) labelled with Cy5 (from UniProt P0A7I4 1-529) (natural protein)”, the koff [4] was 2.5 s⁻¹.

In the case of “RF1-Cy5 (release factor RF1, single-cysteine variant RF1(S167C) labelled with Cy5) (from UniProt P0A7I0 1-360) (natural protein)”, the koff [5] was 1.2 s⁻¹ and the koff [2] was < 0.2 s⁻¹.

“RF2-Cy5, single-cysteine release factor RF2(C273) labelled with Cy5 (from UniProt P07012 1-365) (natural protein)” gave a koff [6] of 0.84 s⁻¹.
